The values below come from the supplement of paper PMC9112550, “Optimization of the antimicrobial peptide Bac7 by deep mutational scanning” (BMC Biology, 2022).

The subject of the series is Escherichia coli TOP10. The series can be described thus: shrunken log2 fold change of peptide-encoding DNA abundance (4.5 h post-induction vs induction); higher = less antimicrobial activity (less host growth inhibition). The conditions noted are these: time post-induction: 4.5 h; library: site-saturation at positions 5, 18, 19, 20.
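Further: peptides expressed intracellularly from a pBAD plasmid library in pooled LB shake-flask culture, induced with 0.3% L-arabinose, DNA abundance read by NGS, three biological replicates, DESeq2 with apeglm shrinkage.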

With RRIRARPPRLPRPRPRPDLDPRP, the “shrunken log2 fold change” value came out at 0.515.

With RRIRTRPPRLPRPRPRPNTTPRP, the “shrunken log2 fold change” value is -0.164.

As to RRIRPRPPRLPRPRPRPCHAPRP, the “shrunken log2 fold change” value is -0.242.

RRIRPRPPRLPRPRPRPVKPPRP: the “shrunken log2 fold change” value was -0.14.

Regarding RRIRGRPPRLPRPRPRPANVPRP, the “shrunken log2 fold change” value was -0.126.

Regarding RRIRMRPPRLPRPRPRPCYLPRP, the “shrunken log2 fold change” value was determined as 0.0715.

With RRIRWRPPRLPRPRPRPLGDPRP, the “shrunken log2 fold change” value was determined as 0.598.

RRIRQRPPRLPRPRPRPIKHPRP: the “shrunken log2 fold change” value is -0.12.

With RRIRTRPPRLPRPRPRPCWKPRP, the “shrunken log2 fold change” value is -0.0202.

As for RRIRWRPPRLPRPRPRPPRSPRP, the “shrunken log2 fold change” value stood at 0.733.

As to RRIRSRPPRLPRPRPRPWVSPRP, the “shrunken log2 fold change” value was -0.203.

For the sequence RRIRRRPPRLPRPRPRPICVPRP, the “shrunken log2 fold change” value was 0.0261.

RRIRRRPPRLPRPRPRPAIWPRP: the “shrunken log2 fold change” value turned out to be 0.356.

As for RRIRIRPPRLPRPRPRPCSFPRP, the “shrunken log2 fold change” value was -0.45.

For RRIRHRPPRLPRPRPRPCVWPRP, the “shrunken log2 fold change” value came out at 0.0245.

Regarding RRIRTRPPRLPRPRPRPGPAPRP, the “shrunken log2 fold change” value worked out at 0.35.

For the sequence RRIRQRPPRLPRPRPRPETHPRP, the “shrunken log2 fold change” value amounted to 0.0176.

RRIRGRPPRLPRPRPRPKLCPRP: the “shrunken log2 fold change” value turned out to be 0.75.

On to RRIRDRPPRLPRPRPRPMYAPRP, for which the “shrunken log2 fold change” value was 0.143.

With RRIRERPPRLPRPRPRPQVNPRP, the “shrunken log2 fold change” value is -0.129.

In the case of RRIRRRPPRLPRPRPRPRHLPRP, the “shrunken log2 fold change” value is 0.197.

With RRIRYRPPRLPRPRPRPQPDPRP, the “shrunken log2 fold change” value was -0.0504.

Consider RRIRMRPPRLPRPRPRPQDKPRP, for which the “shrunken log2 fold change” value was determined as 0.132.

RRIRRRPPRLPRPRPRPRWSPRP: the “shrunken log2 fold change” value was 0.498.

Consider RRIRKRPPRLPRPRPRPWQLPRP, for which the “shrunken log2 fold change” value was -0.00277.

As to RRIRHRPPRLPRPRPRPNTCPRP, the “shrunken log2 fold change” value was -0.53.

As to RRIRQRPPRLPRPRPRPCLVPRP, the “shrunken log2 fold change” value was -0.252.

Regarding RRIRSRPPRLPRPRPRPSVPPRP, the “shrunken log2 fold change” value is -0.634.

In the case of RRIRVRPPRLPRPRPRPGNPPRP, the “shrunken log2 fold change” value is -0.104.

On to RRIRNRPPRLPRPRPRPVIHPRP, for which the “shrunken log2 fold change” value is -0.0797.

With RRIRARPPRLPRPRPRPSTSPRP, the “shrunken log2 fold change” value was -0.322.

Take RRIRLRPPRLPRPRPRPQNEPRP: the “shrunken log2 fold change” value was -0.459.

For the sequence RRIRSRPPRLPRPRPRPWKDPRP, the “shrunken log2 fold change” value was -0.00804.

Regarding RRIRQRPPRLPRPRPRPNKGPRP, the “shrunken log2 fold change” value was -0.0896.

Turning to RRIRNRPPRLPRPRPRPRPTPRP, the “shrunken log2 fold change” value came to 0.658.

Take RRIRWRPPRLPRPRPRPSETPRP: the “shrunken log2 fold change” value was 0.0208.

Regarding RRIRRRPPRLPRPRPRPDLTPRP, the “shrunken log2 fold change” value is 0.521.

RRIRDRPPRLPRPRPRPCMWPRP: the “shrunken log2 fold change” value is 0.569.

As to RRIRERPPRLPRPRPRPMKVPRP, the “shrunken log2 fold change” value was -0.0915.

On to RRIRQRPPRLPRPRPRPCASPRP, for which the “shrunken log2 fold change” value is -0.0156.

Turning to RRIRFRPPRLPRPRPRPRATPRP, the “shrunken log2 fold change” value turned out to be 0.691.

Consider RRIRDRPPRLPRPRPRPFVTPRP, for which the “shrunken log2 fold change” value was -0.0344.

Turning to RRIRVRPPRLPRPRPRPIHWPRP, the “shrunken log2 fold change” value was -0.131.

As for RRIRVRPPRLPRPRPRPICQPRP, the “shrunken log2 fold change” value was -0.188.

For the sequence RRIRIRPPRLPRPRPRPHQNPRP, the “shrunken log2 fold change” value was -0.165.

Regarding RRIRIRPPRLPRPRPRPQQVPRP, the “shrunken log2 fold change” value was determined as 0.00944.

On to RRIRNRPPRLPRPRPRPEMEPRP, for which the “shrunken log2 fold change” value is -0.0148.

With RRIRIRPPRLPRPRPRPAGGPRP, the “shrunken log2 fold change” value turned out to be 0.3.

For the sequence RRIRGRPPRLPRPRPRPSFTPRP, the “shrunken log2 fold change” value amounted to 0.079.

In the case of RRIRRRPPRLPRPRPRPFAYPRP, the “shrunken log2 fold change” value was -0.0942.

Consider RRIRDRPPRLPRPRPRPQSGPRP, for which the “shrunken log2 fold change” value is -0.136.

With RRIRCRPPRLPRPRPRPAIMPRP, the “shrunken log2 fold change” value is -0.0676.

With RRIRTRPPRLPRPRPRPTQQPRP, the “shrunken log2 fold change” value was found to be 0.175.

In the case of RRIRHRPPRLPRPRPRPLETPRP, the “shrunken log2 fold change” value is -0.47.

For RRIRYRPPRLPRPRPRPRVRPRP, the “shrunken log2 fold change” value is 0.175.

As for RRIRWRPPRLPRPRPRPIHDPRP, the “shrunken log2 fold change” value was -0.118.

In the case of RRIRERPPRLPRPRPRPFHEPRP, the “shrunken log2 fold change” value was -0.0823.

As to RRIRERPPRLPRPRPRPHIWPRP, the “shrunken log2 fold change” value was 0.00885.

Take RRIRERPPRLPRPRPRPADTPRP: the “shrunken log2 fold change” value is -0.262.

As to RRIRIRPPRLPRPRPRPFSEPRP, the “shrunken log2 fold change” value is -0.315.

Take RRIRYRPPRLPRPRPRPSRRPRP: the “shrunken log2 fold change” value amounted to 0.0397.

For RRIRERPPRLPRPRPRPMSAPRP, the “shrunken log2 fold change” value was found to be 0.00792.

With RRIRIRPPRLPRPRPRPEQKPRP, the “shrunken log2 fold change” value worked out at 2.45.

For RRIRCRPPRLPRPRPRPFLDPRP, the “shrunken log2 fold change” value is -0.0521.

Consider RRIRTRPPRLPRPRPRPVEGPRP, for which the “shrunken log2 fold change” value is -0.194.

For the sequence RRIRGRPPRLPRPRPRPDDGPRP, the “shrunken log2 fold change” value is -0.0284.

RRIRTRPPRLPRPRPRPLNLPRP: the “shrunken log2 fold change” value was -0.548.

Regarding RRIRPRPPRLPRPRPRPNWMPRP, the “shrunken log2 fold change” value worked out at 0.0917.

Consider RRIRGRPPRLPRPRPRPDHYPRP, for which the “shrunken log2 fold change” value is -0.203.

Regarding RRIRSRPPRLPRPRPRPWGSPRP, the “shrunken log2 fold change” value was -0.0403.

In the case of RRIRLRPPRLPRPRPRPFCSPRP, the “shrunken log2 fold change” value came out at 1.91.

Take RRIRYRPPRLPRPRPRPIIDPRP: the “shrunken log2 fold change” value was -1.

As to RRIRTRPPRLPRPRPRPHSPPRP, the “shrunken log2 fold change” value is -0.278.

For the sequence RRIRMRPPRLPRPRPRPLCPPRP, the “shrunken log2 fold change” value is -0.0953.

For the sequence RRIRNRPPRLPRPRPRPHSWPRP, the “shrunken log2 fold change” value was determined as 0.00366.

Consider RRIRQRPPRLPRPRPRPYEMPRP, for which the “shrunken log2 fold change” value is -0.153.

On to RRIRLRPPRLPRPRPRPAAIPRP, for which the “shrunken log2 fold change” value is -0.0299.

For the sequence RRIRSRPPRLPRPRPRPPSPPRP, the “shrunken log2 fold change” value was determined as 0.376.

Consider RRIRRRPPRLPRPRPRPTLEPRP, for which the “shrunken log2 fold change” value is 0.607.

In the case of RRIRIRPPRLPRPRPRPNQTPRP, the “shrunken log2 fold change” value was -0.00271.

Consider RRIRIRPPRLPRPRPRPVTHPRP, for which the “shrunken log2 fold change” value was -0.256.

On to RRIRYRPPRLPRPRPRPGLYPRP, for which the “shrunken log2 fold change” value is -0.486.

In the case of RRIRCRPPRLPRPRPRPRHSPRP, the “shrunken log2 fold change” value is -0.102.

Turning to RRIRWRPPRLPRPRPRPIPCPRP, the “shrunken log2 fold change” value is -0.0198.

For the sequence RRIRARPPRLPRPRPRPRVVPRP, the “shrunken log2 fold change” value came to 0.624.

For the sequence RRIRMRPPRLPRPRPRPIFDPRP, the “shrunken log2 fold change” value came out at 0.00763.

RRIRIRPPRLPRPRPRPNQSPRP: the “shrunken log2 fold change” value is -0.812.

With RRIRPRPPRLPRPRPRPCYNPRP, the “shrunken log2 fold change” value was -0.868.

As for RRIRCRPPRLPRPRPRPNTSPRP, the “shrunken log2 fold change” value is -0.343.

As to RRIRLRPPRLPRPRPRPQTFPRP, the “shrunken log2 fold change” value was -0.118.

In the case of RRIRDRPPRLPRPRPRPHWNPRP, the “shrunken log2 fold change” value was -0.201.
